In patent publication US9314532B2, “Drug delivery vehicle” (University of North Texas Health Science Center, priority 2012, dated 2016):
Ends that are not written are not given here.

How the values were obtained:
[1] = paclitaxel encapsulation efficiency into myristoyl peptide nanoparticles (3H-paclitaxel); assay type: physicochemical; details: after centrifugation at 5,000 RPM for 5 minutes
Method: Paclitaxel encapsulation efficiency into myristoyl peptide nanoparticles based on measurements of 3H-paclitaxel is shown in FIG. 8. […] In order to clarify the preparations, the samples were centrifuged at 5,000 RPM for 5 minutes.

[2] = mRNA encapsulation, particle size; assay type: physicochemical; details: mRNA/phospholipid particles upon addition of the MYR-5A peptide
Source text: In an embodiment of the present invention, ˜2 kb mRNA was encapsulated to improve its functionality and bioavailability. mRNA was combined with phospholipid in the presence of detergent and particles of approximately 3 μm diameter were obtained. […] The smaller particle is suitable for efficient delivery of the mRNA to target cells and for therapeutic applications.

Row | Sequence | initial amount of paclitaxel retained [1] | particle size [2]
1 | EKLKALLEKLLAKLKELL (also: myristoyl, place not given here) [compound 39877] | 60% | –
2 | DWLKAFYDKVAEKLKEAFPDWAKAAYDKAAEKAKEAA (also: myristoyl, place not given here) [MYR-5A, control peptide] | – | ~500 nm
